According to publication PMC10916992, “APOE Christchurch‐mimetic therapeutic antibody reduces APOE‐mediated toxicity and tau phosphorylation” (Alzheimer's & Dementia, 2023):
Substitutions are numbered along the chain they refer to.

Tests used:
[1] = molecular target: Recombinant His-tagged full-length human ApoE4 (human, UniProt P02649 19-317, Cys112 → Arg112); assay: SPR
[2] = molecular target: T1, Recombinant His-tagged full-length human ApoE4 (Homo sapiens, ApoE4 (C112R mature), UniProt P02649, Cys112 → Arg112); assay: SPR; Biacore 3000, PBS; the Fab injected at various concentrations (methods; the legend says ApoE4 over immobilised Fab); contact 120 s, dissociation 240 s, 30 μL/min; KD from ka and kd; conditions: both partners purified
T1 construct: Apolipoprotein E, human, isoform E4; their rows are written on this molecule; source: E. coli-derived, His-tagged, fee-for-service by Innovagen
Target sequence in this assay (P02649 other isoform, or with tags, fused parts or gaps Cys112 → Arg112 | Cys112 → Arg112): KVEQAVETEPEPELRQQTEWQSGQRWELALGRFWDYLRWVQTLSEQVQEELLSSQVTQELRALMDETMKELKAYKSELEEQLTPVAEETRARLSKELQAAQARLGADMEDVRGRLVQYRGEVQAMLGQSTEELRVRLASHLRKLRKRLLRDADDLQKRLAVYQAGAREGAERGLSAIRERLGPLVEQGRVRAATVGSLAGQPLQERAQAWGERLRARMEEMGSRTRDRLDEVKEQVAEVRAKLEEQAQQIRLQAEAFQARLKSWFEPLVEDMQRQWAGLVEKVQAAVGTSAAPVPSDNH

[3] = molecular target: T2, Recombinant His-tagged full-length human ApoE3 (Homo sapiens, ApoE3, UniProt P02649); assay: ELISA; ApoE peptide or full-length protein coated on the plate; serial dilutions of hybridoma cell supernatants; TBS with 2 mM CaCl2, 3% BSA block; conditions: one partner purified
T2 construct: Apolipoprotein E, human, isoform E3 (C112, R158); ELISA used the Innovagen protein; their rows are written on this molecule; A recombinant 'full-length' ApoE from E. coli is probably the mature protein without signal peptide (surmise); also called ApoE3 FL; WT ApoE; source: E. coli-derived, His-tagged, fee-for-service by Innovagen
Target sequence in this assay (P02649 19-317): as the sequence (P02649 other isoform, or with tags, fused parts or gaps Cys112 → Arg112 | Cys112 → Arg112) above, with R112C counted along it

[4] = molecular target: T2, Recombinant His-tagged full-length …; assay: ELISA; ApoE variants or peptides coated (0.0025 μg/μL in TBS with 2 mM CaCl2, 16 h 4°C); serial dilutions of purified monoclonal antibodies (0.01 to 6.7 nM in the isoform panel), 2 h RT or 16 h 4°C; HRP secondary; conditions: both partners purified
Target sequence in this assay (P02649 19-317): as the sequence (P02649 other isoform, or with tags, fused parts or gaps Cys112 → Arg112 | Cys112 → Arg112) above, with R112C counted along it

[5] = molecular target: T3, ApoE3 in post mortem human brain tissue (APOEε3/ε3 PSEN1 E280A carrier) (Homo sapiens, ApoE3, UniProt P02649); assay: immunostaining of cells or tissue; formalin-fixed paraffin-embedded middle temporal gyrus sections of PSEN1 E280A carriers of different APOE genotypes; 1H4 0.012 μg/μL, 7C11 0.041 μg/μL, 19G 0.072 μg/μL overnight 4°C; HRP detection; not quantified; conditions: one partner purified
T3 construct: Apolipoprotein E, human, isoform E3; source: endogenous, post mortem human middle temporal gyrus, formalin-fixed paraffin-embedded sections
T3 sequence (P02649 19-317, stated change not applied): as the sequence (P02649 other isoform, or with tags, fused parts or gaps Cys112 → Arg112 | Cys112 → Arg112) above, with R112C counted along it

[6] = molecular target: T2, Recombinant His-tagged full-length …; assay: BLI; OCTET RED 96, 25°C; msIgG1 7C11.mAb loaded on anti-mouse Fc (AMC) sensors at 20 μg/mL; ApoE variant in solution (200 nM), PBS + 0.1% BSA; conditions: both partners purified
[7] = molecular target: T4, Recombinant His-tagged full-length human ApoE2 (Homo sapiens, ApoE2 (R158C mature), UniProt P02649, Arg158 → Cys158); assay: as above; conditions: both partners purified
T4 construct: Apolipoprotein E, human, isoform E2; its rows are written on this molecule; source: E. coli-derived, His-tagged, fee-for-service by Innovagen

[8] = molecular target: T1, Recombinant His-tagged full-length …; assay: as above; conditions: both partners purified
[9] = molecular target: T2, Recombinant His-tagged full-length …; assay: BLI; OCTET RED 96, 25°C; ApoE variants immobilised on anti-penta-His (HS1K) sensors; 7C11.mAb in solution, titrated; conditions: both partners purified
Target sequence in this assay (P02649 19-317): as the sequence (P02649 other isoform, or with tags, fused parts or gaps Cys112 → Arg112 | Cys112 → Arg112) above, with R112C counted along it

[10] = molecular target: T4, Recombinant His-tagged full-length …; assay: as above; conditions: both partners purified
Target sequence in this assay (P02649 other isoform, or with tags, fused parts or gaps Arg158 → Cys158 | Arg158 → Cys158): as the sequence (P02649 other isoform, or with tags, fused parts or gaps Cys112 → Arg112 | Cys112 → Arg112) above, with R112C, R158C counted along it

[11] = molecular target: T1, Recombinant His-tagged full-length …; assay: as above; conditions: both partners purified
Target sequence in this assay (P02649 other isoform, or with tags, fused parts or gaps Cys112 → Arg112 | Cys112 → Arg112): as the sequence (P02649 other isoform, or with tags, fused parts or gaps Cys112 → Arg112 | Cys112 → Arg112) above

[12] = molecular target: T1, Recombinant His-tagged full-length …; assay: BLI; OCTET RED 96, 25°C; 7C11ch.IgG1 loaded on anti-human IgG Fc (AHC) sensors at 20 μg/mL; ApoE4 in solution (200 nM), PBS + 0.1% BSA; conditions: both partners purified

Sequence of Recombinant His-tagged full-length human ApoE4 (human, UniProt P02649 19-317, Cys112 → Arg112) (P02649 other isoform, or with tags, fused parts or gaps Cys112 → Arg112): as the sequence (P02649 other isoform, or with tags, fused parts or gaps Cys112 → Arg112 | Cys112 → Arg112) above

B1: 7C11-Fab (recombinant Fab fragment of the 7C11.chIgG1 antibody) (Fab, V domains shown)
VH: EVKLVESGGGLVQPGGSLKLSCAASGFTFSRYTMSWVRQTPEKRLEWVAKIRNVGGITYYPDTVKGRFTISRDNAKNTLYLQMSSLKSEDTAMYYCARHYYGSEDYFDYWGQGTTLTVSS
VL: DNVLTQSPASLAVSLGQRATISCKASQSVDYDGDSYMNWYQQKPGQPPKVFIYAASNLESGIPARFSGSGSGTNFTLNIHPVEEEDAATYYCQQSNEDPWTFGGGTKLEIK
notes: VH CDR-1 of 7C11; VH CDR-2 of 7C11; VH CDR-3 of 7C11; VL CDR-1 of 7C11; VL CDR-2 of 7C11; VL CDR-3 of 7C11; also called Fab-7C11; 7C11.IgGFab; source: recombinant, purified, fee-for-service by Creative BioStructure
Kd [1]: 25.1 nM | Kd [2]: ~10 nM

B2: 25F.mAb (mouse monoclonal anti-ApoE3Ch antibody, clone 25F1-2) (antibody, V domains shown)
VH: EVQLQQSGAELVRPGALVKWSCKASGFNIKDYHIHWVKQRPEQGLDWIGWIDPEIDKTLYDPKFQGKARITADTSSNTAYLQLSSLTSEDTAVYYCARGTARASFDYWGQGTTLTVSS
VL: B1 VL with N2I, S35T, V50L, F51L, A54T, N74D, E85V
notes: VH CDR-1; VH CDR-2; VH CDR-3; VL CDR-1; VL CDR-2; VL CDR-3; Raised against the ApoECh peptide; also called 25F.Ab; source: hybridoma supernatant (25F.Ab) and purified monoclonal antibody (25F.mAb), fee-for-service by Innovagen
binding result [3]: binds

B3: 1H4.mAb (mouse monoclonal anti-ApoE antibody) (antibody, V domains shown)
VH: B1 VH with L11V, R31S, V54G, P61L, V64L, M93I, Y95F
VL: B1 VL with N74D
notes: VH CDR-1; VH CDR-2; VH CDR-3; VL CDR-1; VL CDR-2; VL CDR-3; Raised against the ApoE peptide; also called 1H4.Ab; source: hybridoma supernatant (1H4.Ab) and purified monoclonal antibody (1H4.mAb), fee-for-service by Innovagen
binding result [4]: binds | binding result [5]: binds

B4: 7C11.mAb (mouse monoclonal anti-ApoE antibody, msIgG1) (antibody, V domains shown)
VH: B1 VH
VL: B1 VL
notes: VH CDR-1; VH CDR-2; VH CDR-3; VL CDR-1; VL CDR-2; VL CDR-3; Mouse IgG1; also called 7C11.Ab; ms.7C11-Ab; source: hybridoma supernatant (7C11.Ab) and purified monoclonal antibody (7C11.mAb), fee-for-service by Innovagen
Kd [6]: 5.14 nM | Kd [7]: 28.1 nM | Kd [8]: < 0.001 nM | Kd [9]: 16.8 nM | Kd [10]: 7.41 nM | Kd [11]: 6.07 nM

B5: 7C11.chIgG1 (chimeric mouse-human IgG1 7C11 antibody) (antibody, V domains shown)
VH: B1 VH
VL: B1 VL
notes: VH CDR-1 of 7C11; VH CDR-2 of 7C11; VH CDR-3 of 7C11; VL CDR-1 of 7C11; VL CDR-2 of 7C11; VL CDR-3 of 7C11; Human IgG1 constant regions; also called chimeric 7C11 antibody; 7C11 human chimeric antibody; source: human chimeric antibody produced as fee-for-service by Innovagen
Kd [12]: < 0.001 nM
